Laboratory results from PMC7279886, “A non-linear system patterns Rab5 GTPase on the membrane” (eLife, 2020).

How the values were obtained:
Conditions in all cases: both partners purified
Rabex5 = biological target: T1, Rabex5 (Bos taurus, UniProt O18973 1-492); test: HDX-MS; Rabex5/Rabaptin5 premixed with Rab5:GDP, ternary complex diluted into deuterated buffer without GTPγS, 1, 5 and 15 min, 22 °C
T1 construct: Rabex5, Bos taurus, 57 kDa Vps9 domain containing GEF for Rab5; The His tag served for capture in the co-purification and was then cut with 3C protease; also called Rabex5-6xHis

Rabex5/Rabaptin5 complex = biological target: T2, Rabex5/Rabaptin5 complex (Bos taurus | human, UniProt O18973 1-492; Q15276 1-862); test: as above
T2 construct: Rabex5, Bos taurus, 57 kDa Vps9 domain containing GEF for Rab5; Rabaptin5, human, 99 kDa; also called GEF/effector complex; not shown: GST, N-terminal, cleaved; copies: 2 + 2

Rabaptin5 = biological target: T3, Rabaptin5 (human, UniProt Q15276 1-862); test: HDX-MS; Rabex5/Rabaptin5 premixed with Rab5:GDP, ternary complex diluted into deuterated buffer with GTPγS, 1, 5 and 15 min, 22 °C; uptake compared with the sample without GTPγS
T3 construct: Rabaptin5, human, 99 kDa; GST served for capture in the co-purification and was then cut from the resin with GST-3C protease; also called GST-Rabaptin5; not shown: GST, N-terminal, cleaved
T3 sequence (looked up): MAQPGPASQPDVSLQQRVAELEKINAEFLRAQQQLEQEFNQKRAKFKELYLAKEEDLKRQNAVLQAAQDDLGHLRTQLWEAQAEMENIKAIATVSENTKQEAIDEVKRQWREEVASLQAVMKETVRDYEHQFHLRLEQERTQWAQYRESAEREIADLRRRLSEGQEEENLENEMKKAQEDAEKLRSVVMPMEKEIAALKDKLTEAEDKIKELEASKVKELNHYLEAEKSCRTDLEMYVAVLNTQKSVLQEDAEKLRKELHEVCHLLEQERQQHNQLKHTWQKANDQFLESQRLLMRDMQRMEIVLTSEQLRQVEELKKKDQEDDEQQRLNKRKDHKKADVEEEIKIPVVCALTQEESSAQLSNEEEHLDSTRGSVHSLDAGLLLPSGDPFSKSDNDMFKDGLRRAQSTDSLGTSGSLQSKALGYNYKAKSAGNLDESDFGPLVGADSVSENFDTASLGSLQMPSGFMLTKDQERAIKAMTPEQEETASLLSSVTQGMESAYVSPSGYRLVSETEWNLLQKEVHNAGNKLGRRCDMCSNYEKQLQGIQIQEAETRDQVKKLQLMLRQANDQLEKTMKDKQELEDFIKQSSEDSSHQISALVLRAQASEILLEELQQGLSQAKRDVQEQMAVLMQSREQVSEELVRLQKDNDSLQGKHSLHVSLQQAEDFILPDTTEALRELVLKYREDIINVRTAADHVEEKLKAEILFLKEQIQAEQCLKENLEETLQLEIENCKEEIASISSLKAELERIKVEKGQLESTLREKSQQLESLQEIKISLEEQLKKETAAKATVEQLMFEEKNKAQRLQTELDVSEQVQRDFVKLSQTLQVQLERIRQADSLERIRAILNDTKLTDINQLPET

Measured: binding result

T1 sequence (O18973 whole entry, the tested form may be a part): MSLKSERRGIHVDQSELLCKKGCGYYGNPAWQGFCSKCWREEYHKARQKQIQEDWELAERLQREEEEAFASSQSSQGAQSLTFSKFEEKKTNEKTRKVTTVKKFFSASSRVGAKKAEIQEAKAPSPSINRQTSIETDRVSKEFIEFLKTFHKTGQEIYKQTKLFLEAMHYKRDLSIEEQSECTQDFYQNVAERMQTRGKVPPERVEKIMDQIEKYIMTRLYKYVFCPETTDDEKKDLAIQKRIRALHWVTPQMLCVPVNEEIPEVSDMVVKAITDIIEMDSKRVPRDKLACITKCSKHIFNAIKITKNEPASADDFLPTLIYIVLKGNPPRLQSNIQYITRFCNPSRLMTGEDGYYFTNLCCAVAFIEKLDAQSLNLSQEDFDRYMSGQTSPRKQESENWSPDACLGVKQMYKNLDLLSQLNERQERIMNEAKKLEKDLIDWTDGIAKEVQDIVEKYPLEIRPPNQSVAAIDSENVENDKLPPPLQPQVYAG
T2 sequence (O18973 whole entry, the tested form may be a part, one chain of several): as the sequence (O18973 whole entry, the tested form may be a part) above

B1: Rab5 (natural protein, human, UniProt P20339 1-215, looked up)
chain: MASRGATRPNGPNTGNKICQFKLVLLGESAVGKSSLVLRFVKGQFHEFQESTIGAAFLTQTVCLDDTTVKFEIWDTAGQERYHSLAPMYYRGAQAAIVVYDITNEESFARAKNWVKELQRQASPNIVIALSGNKADLANKRAVDFQEAQSYADDNSLLFMETSAKTSMNVNEIFMAIAKKLPKNEPQNPGANSARGRGVDLTEPTQPTRNQCCSN
notes: Rab5a, human; Rab5 as used in the HDX-MS experiment, printed there without GFP; also called Rab5a; Rab5:GDP; source: Sf9, purified (Ni-NTA, SEC)
binds: all assays above
